From patent publication US9926369B2, “Methods for treating hepatocellular cancer by administering an anti-Ang-2 antibody” (Regeneron Pharmaceuticals, Inc., priority 2009, dated 2018)
Where a chain is given by its changes, count along the chain named.

Legend:
[1] = tested on: Tie-2 phosphorylation (Ang-2-mediated) in HUVECs; experiment: Inhibition of Ang-2-mediated Tie-2 phosphorylation in FOXO1-adenovirus infected HUVECs; assay type: cell-based, human; conditions: antibody 0.5 μg/ml
Procedure: Further, the inventors have shown that infection of HUVECs with an adenovirus encoding FOXO1 results in expression and secretion of Ang-2, followed by activation of Tie-2 phosphorylation (Daly et al. 2006 PNAS 103:15491).
Anti-Ang-2 antibodies were tested for their ability to inhibit Tie-2 phosphorylation. Briefly, 7×10^5 HUVECs (Vec Technologies, Rensselaer, N.Y.) were plated in 6 cm cell culture dishes in 3.5 ml of MCDB131 Complete medium (Vec Technologies, Rensselaer, N.Y.). The following day, the cells were washed with Opti-MEM (Invitrogen Corp., Carlsbad, Calif.) and fed with 2 ml of Opti-MEM. […] Cells were then washed with MCDB131 and fed with 2 ml of MCDB131 containing anti-Ang-2 antibodies at a concentration of 0.5 μg/ml. At twenty hours post infection, cells were lysed and subjected to Tie-2 immunoprecipitation as described by Daly et al., Proc. Natl. Acad. Sci. USA 103:15491-15496 (2006). Immunoglobulin was collected on protein A/G beads (Santa Cruz Biotechnology, Santa Cruz, Calif.) for one hour. Beads were washed with cold lysis buffer and resuspended in SDS sample buffer for analysis by western blot with antibodies specific for phosphotyrosine (Millipore, Billerica, Mass.) or Tie-2. Signals were detected using HRP-conjugated secondary antibodies and ECL reagents (GE Healthcare, Piscataway, N.J.). X-Ray films were scanned and the phospho-Tie-2 and Tie-2 signals were quantified using ImageJ software. The phospho-Tie-2/Tie-2 ratios were used to determine the % inhibition for each anti-Ang-2 antibody (i.e. Percent inhibition=Reduction in phospho-Tie-2/Tie-2 as compared to control).

[2] = tested on: PC3 (Human Prostate Cancer Cell Line) tumors; experiment: PC3 mouse tumor model; assay type: in vivo, NCr nude mice; conditions: PC3, 2 mg/kg twice per week
Procedure: Briefly, 5×10^6 PC3 cells in 100 μl of growth factor-reduced Matrigel (BD Biosciences) were injected subcutaneously into the flanks of 6-8 week old male NCr nude mice (Taconic, Hudson, N.Y.). After tumor volumes reached an average of about 200 mm^3, mice were randomized into groups for treatment. […] Tumor volumes were measured twice per week over the course of the experiment and tumor weights were measured upon excision of tumors at the conclusion of the experiment. Averages (mean+/−standard deviation) of tumor weight and growth were calculated for each treatment group. Percent decrease of tumor weight and growth were calculated from comparison to Fc protein measurements.

[3] = tested on: COLO 205 (Human Colorectal Adenocarcinoma Cell Line) tumors; experiment: COLO 205 mouse tumor model; assay type: in vivo, mice; conditions: COLO 205, NCr nude mice, 4 mg/kg intraperitoneal twice per week; for Avg Tumor Weight: approximately two weeks
Procedure: Briefly, 2×10^6COLO 205 cells in 100 μl of serum-free medium were injected subcutaneously into the flank of 6-8 week old male NCr nude mice (Taconic, Hudson, N.Y.). After tumor volumes reached an average of about 150 mm^3, mice were randomized into groups for treatment with antibody or Fc protein. Mice in each treatment group were administered an anti-Ang-2 antibody or Fc protein at a concentration of 4 mg/kg via intraperitoneal injection twice per week for approximately two weeks. Tumor volumes were measured twice per week over the course of the experiment and tumor weights were measured upon excision of tumors at the conclusion of the experiment. Averages (mean+/−standard deviation) of tumor weight and growth were calculated for each treatment group. “Avg. Tumor Growth” represents the average growth from the time of treatment initiation (when tumors were approximately 150 mm^3). Percent decrease of tumor weight and growth are calculated from comparison to Fc protein measurements.
A similar experiment was carried out to assess the effect of H1H685P, in particular, on COLO 205 tumor growth. Briefly, 2×10^6 COLO 205 cells in 100 μl of serum-free medium were implanted subcutaneously into the right hind flank of 9-11 week-old male SCID CB17 mice. When the tumors reached ˜125 mm^3, mice were randomized into 5 groups (n=7-8 mice/group) and treated twice per week with Fc protein (15 mg/kg), H1H685P (5 or 25 mg/kg) or Control II (5 or 25 mg/kg) for a period of 19 days. Tumor volumes were measured twice per week over the course of the experiment and tumor weights were measured upon excision of tumors at the end of the experiment. Averages of tumor weight and growth from the beginning of treatment were calculated for each group. Percent decrease of tumor weight and growth are calculated from comparison to the Fc control group.
To determine the effect of combining an anti-Ang-2 antibody with a VEGF inhibitor on the growth of COLO 205 xenografts, 2×10^6 cells were implanted subcutaneously into the right hind flank of 6-8 week-old female SCID mice. When the tumors reached an average volume of ˜350 mm^3, mice were randomized into 4 groups (n=6 mice/group) and treated with: human Fc protein (7.5 mg/kg), H1H685P (5 mg/kg), VEGF Trap (see U.S. Pat. No. 7,087,411) (2.5 mg/kg) or the combination of H1H685P+VEGF Trap. Mice were given a total of 3 doses over 10 days of treatment. Tumor volumes were measured twice per week over the course of the experiment. Averages of tumor growth from the start of treatment (mean+/−standard deviation) were calculated for each treatment group. Percent decrease of tumor growth was calculated from comparison to the Fc control group.
To test the effect of H1H685P in combination with a chemotherapeutic agent on tumor growth, 2.5×10^6 COLO 205 tumor cells were implanted subcutaneously into the right hind flank of 8-9 week-old male SCID mice. When the tumors reached an average volume of ˜150 mm^3 (day 17 after implantation), mice were randomized into 4 groups (n=5 mice/group) and treated as follows: the first group was treated sc with 15 mg/kg hFc and intraperitoneally (ip) with 5-FU vehicle; the second group was treated sc with 15 mg/kg of H1H685P; the third group was treated ip with 75 mg/kg of 5-FU; the fourth group was treated with the combination of 15 mg/kg H1H685P sc plus 75 mg/kg 5-FU ip. Mice received a total of three treatments, administered every 3-4 days. Tumor volumes were measured twice per week over the course of the experiment. Average (mean+/−standard deviation) tumor growth from the beginning of treatment until day 38 was calculated for each group. Percent decrease of tumor growth was calculated from comparison to the control group.

B1: H2M750N: anti-Ang-2 antibody, HCVR/LCVR SEQ ID NOs 458/466 (antibody, V domains shown)
VH: QVKLVESGGGVVQPGRSLRVSCAASGFTFSSYGMHWVRQAPGKGLEWLAIIWYDGDNKYYSDSVKGRFTISRDNSKNTLYLQMNSLRAEDTAEYYCVRDASIASRFLDYWGQGTLVTVSS
VL: DIQMTQSPSSLSASIGDRVTITCRATQDINNYLAWFQQKPGKAPKSLIYATSNLQSGVPSKFSGSGSGTDYTLTISSLQPEDFSTYYCQQYHSYPLTFGGGTKVEIK
Inhibition of Tie-2 phosphorylation [1]: +++ (75-100%) | Inhibition of Tie-2 phosphorylation (in words) [1]: Especially robust inhibition | % Decrease in Tumor Growth [2]: 52% | % Decrease in Tumor Weight [2]: 37% | Avg Tumor Growth [2]: 227 ± 195 mm^3 | Avg Tumor Weight [2]: 0.348 ± 0.128 g

B2: H1M749N: anti-Ang-2 antibody, HCVR/LCVR SEQ ID NOs 314/322 (antibody, V domains shown)
VH: QVQLVESGGGVVQPGRSLRLSCAASGFTFSSYGMHWVRQAPGKGLEWVAVIWYDEFNKYYADSVKGRFTISRDNSKNTLYLQMNSLRAEDTAVYYCARERESGYSYGFDYWGQGTLVTVSS
VL: EIVMTQSPATLSVSPGERATLSCRAGQSVSSNLAWYQQKPGQAPRLLIYGASTRATGIPARFSGSGSGTEFTLTISSLQSEDFAVYYCQQYNNWWTFGQGTKVEIK
Inhibition of Tie-2 phosphorylation [1]: ++ (50-75%) | % Decrease in Tumor Growth [2]: 54% | % Decrease in Tumor Weight [2]: 31% | Avg Tumor Growth [2]: 220 ± 261 mm^3 | Avg Tumor Weight [2]: 0.383 ± 0.275 g | % Decrease in Tumor Growth [3]: 39% | % Decrease in Tumor Weight [3]: 29% | Avg Tumor Growth [3]: 449 ± 169 mm^3 | Avg Tumor Weight [3]: 0.603 ± 0.142 g

B3: H2M742N: anti-Ang-2 antibody, HCVR/LCVR SEQ ID NOs 386/394 (antibody, V domains shown)
VH: DVQLLESGGDLVQPGGSLRLSCEASGFTFRNYVMIWVRQAPGKGLEWVSGISNSGGTTHYTDSVKGRFTISRDNSKNTLYLQINSLRAEDTAVYYCAKGYLDTSLIEGNWFDPWGQGTLVTVSS
VL: NIVMTQSPLSLPVTPGEPASISCRSSQSLLHSNGFNYLNWFLQKPGQSPQLLIYLGSNRASGVPDKFSGSGSGTDFTLNINRVEAEDVGIYFCMQTLQTPLTFGGGTKVEIK
Inhibition of Tie-2 phosphorylation [1]: ++ (50-75%) | % Decrease in Tumor Weight [2]: 35% | Avg Tumor Growth [2]: 220 ± 102 mm^3 | Avg Tumor Weight [2]: 0.407 ± 0.076 g | % Decrease in Tumor Growth [3]: 42% | % Decrease in Tumor Weight [3]: 32% | Avg Tumor Growth [3]: 427 ± 92 mm^3 | Avg Tumor Weight [3]: 0.576 ± 0.057 g

B4: H1H693P: anti-Ang-2 antibody, HCVR/LCVR SEQ ID NOs 90/92 (antibody, V domains shown)
VH: EVQLVESGGGLVQPGESLRLSCAASGFTFSSYAMSWVRQGPGKGLEWVSSISGSGGTTYYADSVEGRFTISRDNSKNTLYLHMNSLRAEDTAVYYCAKDFLDYSTYLAFDLWGQGTMVTVSS
VL: DIQMTQSPSSVSASVGDRVTITCRASQGISSWLAWYQQKPGKAPKLLIYAASSLQSGVPSRFSGSGSGTDFTLTISSLQPEDFATYYCQQANSFPRTFGQGTKVEIK
Inhibition of Tie-2 phosphorylation [1]: +++ (75-100%) | Inhibition of Tie-2 phosphorylation (in words) [1]: Especially robust inhibition

B5: H2M743N: anti-Ang-2 antibody, HCVR/LCVR SEQ ID NOs 410/418 (antibody, V domains shown)
VH: EVQLLESGGGLVQPGGSLRLSCAASGFTFRKYAMSWVRQAPGKGLEWVSVISVSGGNTYYADSVKGRFTISRDNSKNTLYLQLNSLRAEDTAVYYCAKDLTDIVLMVYVDYWGQGTLVTVSS
VL: B4 VL with G28D, S30D, S31R, S77T, F94L, R96F, Q100G
Inhibition of Tie-2 phosphorylation [1]: +++ (75-100%) | % Decrease in Tumor Growth [2]: 50% | % Decrease in Tumor Weight [2]: 41% | Avg Tumor Growth [2]: 179 ± 169 mm^3 | Avg Tumor Weight [2]: 0.372 ± 0.122 g

B6: H1H704P: anti-Ang-2 antibody, HCVR/LCVR SEQ ID NOs 186/188 (antibody, V domains shown)
VH: QVQLVESGGDVVQPGRSLRLSCAASGFTFSSYGMHWVRQAPGKGLEWVAIIWYDGSNKYYADSVKGRFTISRDNSKNTLYLQMNSLRVEDTAVYSCARDFSISSRHFDYWGQGTLVTVSS
VL: DIQMTQSPSSLSASVGDRVTITCRASQAINNYLAWFQQKPGKAPKSLIYATSNLQSGVPSQFSGSGSGTDYTLTISSLQPEDFATYYCQQYYIYPITFGQGTRLEIK
Inhibition of Tie-2 phosphorylation [1]: +++ (75-100%) | Inhibition of Tie-2 phosphorylation (in words) [1]: Especially robust inhibition

B7: H1M724N: anti-Ang-2 antibody, HCVR/LCVR SEQ ID NOs 266/274 (antibody, V domains shown)
VH: QVQLVESGGGVVQPGRSLRLSCAASGFTLSNYGMHWVRQAPGKGLEWVAVIWHDGSNTYYADSVKGRFTISRDNSKNTLYLQMNSLRAEDTAVYYCTREGLDFWSGYYPNWFDPWGQGTLVTVSS
VL: DIQMTQSPSSLSASVGDRVTITCRASQGIRNDLGWYQQKPGKAPKRLIYAASNLQGGVPSRFSGSGSGTEFTLTISSLQPEDFAAYYCLQHNIYPLTFGGGTKVEIK
Inhibition of Tie-2 phosphorylation [1]: +++ (75-100%) | Inhibition of Tie-2 phosphorylation (in words) [1]: Especially robust inhibition | % Decrease in Tumor Growth [3]: 54% | % Decrease in Tumor Weight [3]: 37% | Avg Tumor Growth [3]: 336 ± 125 mm^3 | Avg Tumor Weight [3]: 0.531 ± 0.103 g

B8: H1M732N: anti-Ang-2 antibody, HCVR/LCVR SEQ ID NOs 242/250 (antibody, V domains shown)
VH: EVQLVESGGGLVRPGGSLRLSCAASGFTFTNAWMSWVRQAPGKGLEWIGQIKSKTDGGTIDYAAPVKGRFTVSRDDSENTLFLQMNSLKTEDTAVYYCAGNWNYVDFDYWGQGTLVTVSS
VL: B7 VL with G28D, N53S, A85T, I93S, L96F, G100P, E105D
Inhibition of Tie-2 phosphorylation [1]: ++ (50-75%)
